As a reminder, the Kd is a measure of binding affinity in units of concentration. Higher therefore signals a looser complex.

Among the data in publication PMC5389570 (Nucleic Acids Research, 2017) are Kd values, retold here.

This test addresses heterotrimeric human RPA (RPA70, RPA32, RPA14) (human, UniProt P27694;P15927;P35244). Nature of the test: SPR. Background: SPR reads the build-up and loss of mass on a sensor chip optically.

Chain of heterotrimeric human RPA (RPA70, RPA32, RPA14) (P27694 whole entry, chain 1 of 3): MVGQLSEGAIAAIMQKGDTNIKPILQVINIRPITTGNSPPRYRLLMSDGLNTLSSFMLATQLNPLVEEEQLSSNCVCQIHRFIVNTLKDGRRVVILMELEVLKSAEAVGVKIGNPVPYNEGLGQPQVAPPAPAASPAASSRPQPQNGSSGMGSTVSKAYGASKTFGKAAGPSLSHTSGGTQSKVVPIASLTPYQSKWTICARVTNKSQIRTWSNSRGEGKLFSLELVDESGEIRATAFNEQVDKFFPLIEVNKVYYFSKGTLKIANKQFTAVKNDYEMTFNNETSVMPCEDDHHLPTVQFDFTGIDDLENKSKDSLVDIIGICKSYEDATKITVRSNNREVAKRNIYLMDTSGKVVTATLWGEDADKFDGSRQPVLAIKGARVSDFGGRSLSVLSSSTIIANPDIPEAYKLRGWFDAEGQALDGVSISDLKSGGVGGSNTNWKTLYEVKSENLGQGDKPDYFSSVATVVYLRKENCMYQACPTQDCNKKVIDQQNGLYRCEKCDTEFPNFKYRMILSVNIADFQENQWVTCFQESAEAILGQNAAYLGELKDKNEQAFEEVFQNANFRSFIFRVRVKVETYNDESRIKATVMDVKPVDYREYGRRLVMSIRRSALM
Chain of heterotrimeric human RPA (RPA70, RPA32, RPA14) (P15927 whole entry, chain 2 of 3): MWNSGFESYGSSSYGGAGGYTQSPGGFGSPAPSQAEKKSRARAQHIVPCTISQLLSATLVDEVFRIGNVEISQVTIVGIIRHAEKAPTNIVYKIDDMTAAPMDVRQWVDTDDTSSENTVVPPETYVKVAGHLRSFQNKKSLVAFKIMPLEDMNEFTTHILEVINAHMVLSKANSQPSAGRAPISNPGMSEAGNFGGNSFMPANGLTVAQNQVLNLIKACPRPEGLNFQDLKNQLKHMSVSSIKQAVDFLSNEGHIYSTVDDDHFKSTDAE
Chain of heterotrimeric human RPA (RPA70, RPA32, RPA14) (P35244 whole entry, chain 3 of 3): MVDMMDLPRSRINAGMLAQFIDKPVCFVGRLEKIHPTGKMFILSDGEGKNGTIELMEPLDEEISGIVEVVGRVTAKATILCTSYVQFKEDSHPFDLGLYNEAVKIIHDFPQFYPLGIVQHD

B1: human Cdc45 (cell division cycle protein 45), recombinant, C-terminal His6 tag (natural protein)
chain: MFVSDFRKEFYEVVQSQRVLLFVASDVDALCACKILQALFQCDHVQYTLVPVSGWQELETAFLEHKEQFHYFILINCGANVDLLDILQPDEDTIFFVCDTHRPVNVVNVYNDTQIKLLIKQDDDLEVPAYEDIFRDEEEDEEHSGNDSDGSEPSEKRTRLEEEIVEQTMRRRQRREWEARRRDILFDYEQYEYHGTSSAMVMFELAWMLSKDLNDMLWWAIVGLTDQWVQDKITQMKYVTDVGVLQRHVSRHNHRNEDEENTLSVDCTRISFEYDLRLVLYQHWSLHDSLCNTSYTAARFKLWSVHGQKRLQEFLADMGLPLKQVKQKFQAMDISLKENLREMIEESANKFGMKDMRVQTFSIHFGFKHKFLASDVVFATMSLMESPEKDGSGTDHFIQALDSLSRSNLDKLYHGLELAKKQLRATQQTIASCLCTNLVISQGPFLYCSLMEGTPDVMLFSRPASLSLLSKHLLKSFVCSTKNRRCKLLPLVMAAPLSMEHGTVTVVGIPPETDSSDRKNFFGRAFEKAAESTSSRMLHNHFDLSVIELKAEDRSKFLDALISLLS
Regarding B1, the affinity, expressed as Kd, was 115 nM.
